# Reference: article PMC3847620, “A valid strategy for precise identifications of transcription factor binding sites in combinatorial regulation using bioinformatic and experimental approaches”
# T1: MBP-IpMYB1 (Ipomoea purpurea, UniProt Q1JV13 1-272)
# T1 sequence: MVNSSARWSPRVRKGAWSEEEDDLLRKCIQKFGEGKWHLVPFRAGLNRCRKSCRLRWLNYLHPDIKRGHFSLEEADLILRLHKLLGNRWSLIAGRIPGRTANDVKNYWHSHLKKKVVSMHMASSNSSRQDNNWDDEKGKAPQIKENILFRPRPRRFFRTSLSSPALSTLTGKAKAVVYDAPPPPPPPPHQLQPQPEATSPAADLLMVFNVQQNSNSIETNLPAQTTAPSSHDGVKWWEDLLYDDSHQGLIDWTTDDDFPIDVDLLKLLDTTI
# B1: p1x3 (dsDNA)
# DNA 1: ATTCCTAGCTACCATACCTAGCTACCATACCTAGCTACCATATTA
# DNA 2: TAATATGGTAGCTAGGTATGGTAGCTAGGTATGGTAGCTAGGAAT
# B2: MYB1pro probe 3 (dsDNA)
# DNA 1: TCTAGCTAGCTAGCTACCAACTGCAC
# DNA 2: GTGCAGTTGGTAGCTAGCTAGCTAGA
# Tests used:
# MBP-IpMYB1 [1] = target: T1, MBP-IpMYB1; assay: EMSA; EMSA: 1x = 10 mM Tris-HCl pH 7.5, 50 mM NaCl, 8 mM MgCl2, 1 mM EDTA, 1 mM DTT, 5% glycerol; 20 pmol probe, 2 ug MBP-protein in 10 ul, 25 C, 10 min; 12% native PAGE, 0.25x TBE; settings: protein: recombinant; tags: MBP (pMAL-c2G)
# MBP-IpMYB1 [2] = target: T1, MBP-IpMYB1; assay: EMSA; favored over probe 1; EMSA: 1x = 10 mM Tris-HCl pH 7.5, 50 mM NaCl, 8 mM MgCl2, 1 mM EDTA, 1 mM DTT, 5% glycerol; 20 pmol probe, 2 ug MBP-protein in 10 ul, 25 C, 10 min; 12% native PAGE, 0.25x TBE; settings: protein: recombinant; tags: MBP (pMAL-c2G)
Binder,binding result (MBP-IpMYB1 [1]),binding result (MBP-IpMYB1 [2])
B1,binds,–
B2,–,binds
